Patent publication US20240368239A1 (SL METAGEN, published 2024)
Residue numbers refer to the chain shown, from its start. Values belong to the binder of their own block, whether it stands above or below them.

Experiments:
Experiment in all cases: cell-based or functional assay
[1] = target: T1, human GLP-2 receptor (human, UniProt O95838 1-553)
T1 sequence (looked up): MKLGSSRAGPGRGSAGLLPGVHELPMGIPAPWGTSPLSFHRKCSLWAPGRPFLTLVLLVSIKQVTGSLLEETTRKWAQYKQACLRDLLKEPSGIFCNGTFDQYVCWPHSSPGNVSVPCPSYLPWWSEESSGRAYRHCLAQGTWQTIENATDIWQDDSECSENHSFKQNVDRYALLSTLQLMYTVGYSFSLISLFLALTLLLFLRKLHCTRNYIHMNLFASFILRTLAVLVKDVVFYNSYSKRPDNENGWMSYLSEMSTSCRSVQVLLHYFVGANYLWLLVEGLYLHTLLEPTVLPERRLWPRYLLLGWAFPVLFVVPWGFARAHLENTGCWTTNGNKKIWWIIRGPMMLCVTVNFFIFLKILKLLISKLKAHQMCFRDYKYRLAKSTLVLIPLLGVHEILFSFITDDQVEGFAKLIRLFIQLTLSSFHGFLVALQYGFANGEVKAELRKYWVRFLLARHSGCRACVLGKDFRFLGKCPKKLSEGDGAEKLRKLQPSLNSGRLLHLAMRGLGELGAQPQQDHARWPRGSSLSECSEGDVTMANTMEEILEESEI

[2] = target: GLP-1 receptor
[3] = target: GLP-1 receptor; remark: listed apart in the source
[4] = target: T1, human GLP-2 receptor; remark: listed apart in the source
[5] = target: GLP-1 receptor; remark: listed apart in the source

EC50 (nM), cAMP-gated CNG channel membrane potential dye fluorescence (Ft/F0) in Human GLP2R ACTOne cells [1]: 1.22 nM
vs. GLP-2 relative activity (%) [1]: 48%
EC50 (pM), cAMP luciferase reporter in GLP1R_cAMP/luc cells [2]: 66 pM
vs. GLP-1 relative activity (%) [2]: 39%
B1: MG12-4 (bispecific fusion protein of Example 4) (Fc fusion)
chain 1: HGEGTFTSDVSSYLEGQAAKEFIAWLVKGGPSSGAPPPSGGGGGSGGGGSGGGGSAKNTTAPATTRNTTRGGEEKKKEKEKEEQEERTHTCPPCPSHTQPLGVFLFPPKPKDQLMISRTPEVTCVVVDVSQEDPEVQFNWYVDGVEVHNAKTKPREEQFNSTYRVVSVLTVLHQDWLNGKEYKCKVSNKGLPSSIEKTISKAKGQPREPQVYTLPPCQEEMTKNQVSLWCLVKGFYPSDIAVEWESNGQPENNYKTTPPVLDSDGSFFLYSRLTVDKSRWQEGNVFSCSVLHEALHNHYTQKSLSLSLGK
chain 2: HGDGSFSDEMNTILDNLAARDFINWLIQTKITDGGGGSGGGGSGGGGSEKEKEEQEERTHTCPPCPSHTQPLGVFLFPPKPKDQLMISRTPEVTCVVVDVSQEDPEVQFNWYVDGVEVHNAKTKPREEQFNSTYRVVSVLTVLHQDWLNGKEYKCKVSNKGLPSSIEKTISKAKGQPREPQVCTLPPSQEEMTKNQVSLSCAVKGFYPSDIAVEWESNGQPENNYKTTPPVLDSDGSFFLVSRLTVDKSRWQEGNVFSCSVLHEALHNHYTQKSLSLSLGK
modifications: glycan linker (SEQ ID NO: 43) with N-glycosylation sites

EC50 (nM), cAMP-gated CNG channel membrane potential dye fluorescence (Ft/F0) in Human GLP2R ACTOne cells [1]: 0.99 nM
vs. GLP-2 relative activity (%) [1]: 59%
EC50 (pM), cAMP luciferase reporter in GLP1R_cAMP/luc cells [2]: 75 pM
vs. GLP-1 relative activity (%) [2]: 35%
B3: MG12-5 (bispecific fusion protein of Example 5) (Fc fusion)
chain 1: HGEGTFTSDVSSYLEGQAAKEFIAWLVKGGPSSGAPPPSGGGGSGGGGSGGGGSEKEKEEQEERTHTCPPCPSHTQPLGVFLFPPKPKDQLMISRTPEVTCVVVDVSQEDPEVQFNWYVDGVEVHNAKTKPREEQFNSTYRVVSVLTVLHQDWLNGKEYKCKVSNKGLPSSIEKTISKAKGQPREPQVYTLPPCQEEMTKNQVSLWCLVKGFYPSDIAVEWESNGQPENNYKTTPPVLDSDGSFFLYSRLTVDKSRWQEGNVFSCSVLHEALHNHYTQKSLSLSLGK
chain 2: B1 chain 2

The remaining lines, values behind:

B2: MG12-1 (bispecific fusion protein of Example 1) (Fc fusion)
chain 1: HGEGTFTSDVSSYLEGQAAKEFIAWLVKGRGGGGGSGGGGSGGGGSAKNTTAPATTRNTTRGGEEKKKEKEKEEQEERTHTCPPCPSHTQPLGVFLFPPKPKDTLMISRTPEVTCVVVDVSQEDPEVQFNWYVDGVEVHNAKTKPREEQFNSTYRVVSVLTVLHQDWLNGKEYKCKVSNKGLPSSIEKTISKAKGQPREPQVYTLPPCQEEMTKNQVSLWCLVKGFYPSDIAVEWESNGQPENNYKTTPPVLDSDGSFFLYSRLTVDKSRWQEGNVFSCSVMHEALHNHYTQKSLSLSLGK
chain 2: B1 chain 2 with Q84T, L262M
modifications: glycan linker (SEQ ID NO: 43) with N-glycosylation sites
EC50 (nM), cAMP-gated CNG channel membrane potential dye fluorescence (Ft/F0) in Human GLP2R ACTOne cells [1]: 1.35 nM
vs. GLP-2 relative activity (%) [1]: 43%
fold reduction of GLP-1 activity (cAMP luciferase reporter) [3]: ~11 times
EC50 (pM), cAMP luciferase reporter in GLP1R_cAMP/luc cells [2]: 304 pM
vs. GLP-1 relative activity (%) [2]: 9%

B4: MG12-2 (bispecific fusion protein of Example 2) (Fc fusion)
chain 1: HGDGSFSDEMNTILDNLAARDFINWLIQTKITDGGGGSGGGGSGGGGSAKNTTAPATTRNTTRGGEEKKKEKEKEEQEERTHTCPPCPSHTQPLGVFLFPPKPKDTLMISRTPEVTCVVVDVSQEDPEVQFNWYVDGVEVHNAKTKPREEQFNSTYRVVSVLTVLHQDWLNGKEYKCKVSNKGLPSSIEKTISKAKGQPREPQVYTLPPCQEEMTKNQVSLWCLVKGFYPSDIAVEWESNGQPENNYKTTPPVLDSDGSFFLYSRLTVDKSRWQEGNVFSCSVMHEALHNHYTQKSLSLSLGK
chain 2: HGEGTFTSDVSSYLEGQAAKEFIAWLVKGRGGGGGSGGGGSGGGGSEKEKEEQEERTHTCPPCPSHTQPLGVFLFPPKPKDTLMISRTPEVTCVVVDVSQEDPEVQFNWYVDGVEVHNAKTKPREEQFNSTYRVVSVLTVLHQDWLNGKEYKCKVSNKGLPSSIEKTISKAKGQPREPQVCTLPPSQEEMTKNQVSLSCAVKGFYPSDIAVEWESNGQPENNYKTTPPVLDSDGSFFLVSRLTVDKSRWQEGNVFSCSVMHEALHNHYTQKSLSLSLGK
modifications: glycan linker (SEQ ID NO: 43) with N-glycosylation sites
EC50, GLP-2 activity (fluorescence spectroscopy) [4]: 44 nM
EC50, GLP-1 activity (luciferase reporter assay) [5]: 402 pM
